Results as given in patent US9655974B2, “N-terminal modified FGF21 compounds” (Novo Nordisk A/S, priority 2010, dated 2017).

B1: Met-FGF21 (protein)
chain: MHPIPDSSPLLQFGGQVRQRYLYTDDAQQTEAHLEIREDGTVGGAADQSPESLLQLKALKPGVIQILGVKTSRFLCQRPDGALYGSLHFDPEACSFRELLLEDGYNVYQSEAHGLPLHLPGNKSPHRDPAPRGPARFLPLPGLPPALPEPPGILAPQPPDVGSSDPLSMVGPSQGRSPSYAS
notes: comparative compound
B2: [N121Q] Ala-FGF21 (protein)
chain: AHPIPDSSPLLQFGGQVRQRYLYTDDAQQTEAHLEIREDGTVGGAADQSPESLLQLKALKPGVIQILGVKTSRFLCQRPDGALYGSLHFDPEACSFRELLLEDGYNVYQSEAHGLPLHLPGQKSPHRDPAPRGPARFLPLPGLPPALPEPPGILAPQPPDVGSSDPLSMVGPSQGRSPSYAS
B3: [K56R, K59R, K69R, K122R] Gly-FGF21 (protein)
chain: GHPIPDSSPLLQFGGQVRQRYLYTDDAQQTEAHLEIREDGTVGGAADQSPESLLQLRALRPGVIQILGVRTSRFLCQRPDGALYGSLHFDPEACSFRELLLEDGYNVYQSEAHGLPLHLPGNRSPHRDPAPRGPARFLPLPGLPPALPEPPGILAPQPPDVGSSDPLSMVGPSQGRSPSYAS
B4: [N121Q] Met-FGF21 (protein)
chain: MHPIPDSSPLLQFGGQVRQRYLYTDDAQQTEAHLEIREDGTVGGAADQSPESLLQLKALKPGVIQILGVKTSRFLCQRPDGALYGSLHFDPEACSFRELLLEDGYNVYQSEAHGLPLHLPGQKSPHRDPAPRGPARFLPLPGLPPALPEPPGILAPQPPDVGSSDPLSMVGPSQGRSPSYAS
B5: [S71C, N121Q, L166F, S167G, M168L, 173aA, G174V, Y179F, A180E, des181] Ala-FGF21 (protein)
chain: AHPIPDSSPLLQFGGQVRQRYLYTDDAQQTEAHLEIREDGTVGGAADQSPESLLQLKALKPGVIQILGVKTCRFLCQRPDGALYGSLHFDPEACSFRELLLEDGYNVYQSEAHGLPLHLPGQKSPHRDPAPRGPARFLPLPGLPPALPEPPGILAPQPPDVGSSDPFGLVGPSQAVRSPSFE
B6: [N121Q, L166F, S167G, M168L, P171L, S172E, Q173A, G174V, Y179F, A180E, des181] Ala-FGF21 (protein)
chain: HPIPDSSPLLQFGGQVRQRYLYTDDAQQTEAHLEIREDGTVGGAADQSPESLLQLKALKPGVIQILGVKTSRFLCQRPDGALYGSLHFDPEACSFRELLLEDGYNVYQSEAHGLPLHLPGQKSPHRDPAPRGPARFLPLPGLPPALPEPPGILAPQPPDVGSSDPFGLVGLEAVRSPSFES
B7: [S71C, N121Q, L166F, S167G, M168L, P171L, S172E, Q173A, G174V, Y179F, A180E, des181] Ala-FGF21 (protein)
chain: AHPIPDSSPLLQFGGQVRQRYLYTDDAQQTEAHLEIREDGTVGGAADQSPESLLQLKALKPGVIQILGVKTCRFLCQRPDGALYGSLHFDPEACSFRELLLEDGYNVYQSEAHGLPLHLPGQKSPHRDPAPRGPARFLPLPGLPPALPEPPGILAPQPPDVGSSDPFGLVGLEAVRSPSFE
B8: [S71C, N121Q, L166F, S167G, M168L, des170, 173aA, G174V, Y179F, A180E, des181] Ala-FGF21 (protein)
chain: AHPIPDSSPLLQFGGQVRQRYLYTDDAQQTEAHLEIREDGTVGGAADQSPESLLQLKALKPGVIQILGVKTCRFLCQRPDGALYGSLHFDPEACSFRELLLEDGYNVYQSEAHGLPLHLPGQKSPHRDPAPRGPARFLPLPGLPPALPEPPGILAPQPPDVGSSDPFGLVPSQAVRSPSFE
B9: N-alpha-bis-(4-{[(2-(2-{2-[2-(2-{2-[(S)-4-carboxy-4-(17-carboxyheptadecanoylamino)butyrylamino]ethoxy}ethoxy)acetylamino]ethoxy}-ethoxy)acetylamino]methyl}benzyl) [Arg56, Arg59, Arg69, Arg122] … (conjugate, UniProt Q9NSA1 29-209, looked up, variant K56R K59R K69R K122R)
Fibroblast growth factor 21: HPIPDSSPLLQFGGQVRQRYLYTDDAQQTEAHLEIREDGTVGGAADQSPESLLQLRALRPGVIQILGVRTSRFLCQRPDGALYGSLHFDPEACSFRELLLEDGYNVYQSEAHGLPLHLPGNRSPHRDPAPRGPARFLPLPGLPPALPEPPGILAPQPPDVGSSDPLSMVGPSQGRSPSYAS
modifications: N-terminal Gly; bis fatty diacid-linker benzyl acylation

Assays:
3T3-L1 adipocytes = experiment: Potency assay - glucose uptake in 3T3-L1 adipocytes; assay type: cell-based, mouse; settings: EC50 relative to EC50 of Met-FGF21; 20 hours stimulation, 3H-deoxyglucose tracer
Description: The following assay was used for determining the biological activity, or potency, of FGF21 compounds of the invention. […] The cells are not allowed to reach confluence and should be passed (transferred to new vials) before reaching approx. 60% of confluency (by visual inspection). For the glucose uptake assay, cells are plated 80,000 cells/well in a 24 well plate, or 20,000 cells/well in a 96 well plate, and when they reach confluency (high density, with a view to have differentiated adipose cells made), the medium is changed from basal medium to basal medium containing Troglitazone, IBMX, Dexamethasone (commercially available from, e.g., Sigma) and human insulin (commercially available from, e.g., Novo Nordisk A/S). The cells are used 7-14, preferably 7-10, days after initiation of differentiation. […] This incubation is terminated by washing twice in ice cold assay buffer. The cells are lysed with Triton X-100 and lysates transferred to a 96 wells plate, microscint-40 (commercially available from, e.g., Perkin Elmer) is added and amount of tracer counted in a TOP-counter (e.g. a Packard top-counter from Perkin Elmer). The EC50 of the polypeptide in question is calculated.

[1] = tested on: HEK293 cells stably transfected with human beta-Klotho; experiment: HEK293/beta-Klotho Erk phosphorylation assay; assay type: cell-based; settings: without HSA; 12 minutes incubation; AlphaScreen SureFire Phospho-ERK1/2; read-out: pERK-HEK293-Beta-klotho without HSA [EC50 (nM)] Mean Value
Description: Erk phosphorylation assay was performed in HEK293 cells that were stably transfected with human beta-Klotho. The HEK293T/b-klotho stable cells were seeded at 30000 cells/well on 96-well plates. After two days, fresh media was added, and after 2 hours more the FGF21 proteins were added. The plates were incubated for 12 minutes. And total ERK phosphorylation was assessed using an AlphaScreen SureFire Phospho-ERK1/2 Assay Kit (Perkin Elmer, Waltham, Mass.) according to the manufacturer's instructions and an EnVision Multilabel Microplate Reader Model 2103 (Perkin Elmer) with the AlphaScreen HTS Turbo option was used for signal detection. Data are represented as means+/−S.E.M. EC50 values were determined from a 4-parameter logistic nonlinear regression analysis using GraphPad Prism version 5.02. References: Yie, J. et al.: FGF21 N- and C-termini play different roles in receptor interaction and activation, FEBS Letters 583 (2009) 19-24, and Micanovic R. et al.: Different roles of N- and C-termini in the functional activity of FGF21. J. Cell. Physiol. 2009 May; 219(2):227-34.

[2] = Pharmacokinetics in mini pig, single intravenous dose; assay type: in vivo; settings: normal male Göttingen mini pigs, single intravenous dose of 0.1 mg/kg; standard deviation 2.7 hours
Description: The pharmacokinetic profile of Met-FGF21 can be tested in normal male Göttingen mini pigs, n=4 (8-15 months old, weighing approximately 18-30 kg). The plasma concentration of the compound to be tested is monitored for 14 days. The Met-FGF21 is dosed as a single intravenous dose of 0.1 mg/kg (approximately 5 nmol/kg).
The plasma levels of the FGF21 compounds can be determined using Fibroblast Growth Factor-21 Human ELISA (available from BioVendor, catalogue no. RD191108200R). The PC based software, WinNonLin version 5.2 from Pharsight Corporation, Cary N.C., can be used for the pharmacokinetic calculation.

| Molecule | Glucose uptake 3T3-L1 Potency (%) rel. to Met-FGF21 (3T3-L1 adipocytes) | EC50 [1] | mean half-life (T1/2) [2] |
| --- | --- | --- | --- |
| N-alpha(4-{[2-(2-{2-[2-(2-{2-[(S)-4-Carboxy-4-(17-carboxyheptadecanoylamino)butyrylamino]-ethoxy}ethoxy)acetylamino]ethoxy}ethoxy)acetylamino]methyl}benzyl) [S71C, N121Q, L166F, S167G, M168L, P171L, S172E, Q173A, G174V, Y179F, A180E, des181] Ala-FGF21 [Example 6] | 352% | 0.4 nM |  |
| [Q28R, K56R, K59R, K69R, D102T, D121Q, K122R, L166F, S167G, M168L, G170T] Ala-FGF21 [Example 2b] | 416% | 0.8 nM |  |
| N-alpha-(4-{[2-(2-{2-[2-(2-{2-[(S)-4-carboxy-4-(17-carboxyheptadecanoylamino)butyrylamino]ethoxy}ethoxy)acetylamino]ethoxy}ethoxy)acetylamino]methyl}benzyl) [K56R, K59R, K69R, D102T, D121Q, K122R, L166F, S167G, M168L, G170T] Ala-FGF21 [Example 5] | 100% | 1 nM |  |
| B1 | 100% |  | 10.8 h |
| B2 | 116% |  |  |
| B3 | 66% |  |  |
| B4 | 119% |  |  |
| B5 | 394% |  |  |
| B6 | 1593% | 0.7 nM |  |
| B7 | 872% |  |  |
| B8 | 663% |  |  |
| B9 | 8.5% | 4.6 nM |  |
